Test results as given in paper PMC5714945, “A homologue of the Parkinson’s disease-associated protein LRRK2 undergoes a monomer-dimer transition during GTP turnover” (Nature Communications, 2017).

How the values were obtained:
[1] = molecular target: the molecule itself; assay: native MS; GppNHp: pre-incubated with 500 µM, 100 µM in 150 mM ammonium acetate pH 7.5; protein 12.5-16 µM
[2] = molecular target: the molecule itself; assay: SEC-SAXS; nucleotide-free protein; 50 µl of 8 mg ml^-1 injected on a Bio SEC-3 column; 20 mM Hepes pH 7.5, 150 mM NaCl, 5 mM MgCl2, 5% glycerol, 1 mM DTT; mass from Porod volume
[3] = molecular target: the molecule itself; assay: AUC; sedimentation equilibrium, with GDP; dimer to monomers; 7.2, 4.5 and 2.7 µM protein; buffer as SV-AUC; SEDPHAT monomer-dimer model; approximate KD
[4] = molecular target: the molecule itself; assay: AUC; sedimentation equilibrium, with GppNHp; dimer to monomers; 7.2, 4.5 and 2.7 µM protein; buffer as SV-AUC; SEDPHAT monomer-dimer model; approximate KD
[5] = molecular target: the molecule itself; assay: SEC-MALS; nucleotide-free protein; 10 µl of 8 mg ml^-1 injected on a Bio SEC-3 column; buffer as for SEC-SAXS

Row | Protein | monomer/dimer ratio [1] [monomer/dimer] | stoichiometry N [2] | monomer-dimer ratio [1] [monomer/dimer] | Kd [3] [µM] | Kd [4] [µM] | stoichiometry N [5]
1 | Roc-COR domain construct of the Chlorobium tepidum Roco protein (CtRoc-COR) (domain or fragment, UniProt Q8KC98 412-946, looked up, Roco protein from Chlorobium tepidum (CtRoco), central Roc-COR module, a.a; 412-946; The monomer chain is written; also called CtRoc-COR wt; Roc-COR module; source: E. coli BL21 (DE3), purified (Ni-NTA IMAC, EDTA treatment, Superdex S200 SEC)) DNPLESPPPEIVKQGKEAVRQYFQSIEEARSKGEALVHLQEIKVHLIGDGMAGKTSLLKQLIGETFDPKESQTHGLNVVTKQAPNIKGLENDDELKECLFHFWDFGGQEIMHASHQFFMTRSSVYMLLLDSRTDSNKHYWLRHIEKYGGKSPVIVVMNKIDENPSYNIEQKKINERFPAIENRFHRISCKNGDGVESIAKSLKSAVLHPDSIYGTPLAPSWIKVKEKLVEATTAQRYLNRTEVEKICNDSGITDPGERKTLLGYLNNLGIVLYFEALDLSEIYVLDPHWVTIGVYRIINSSKTKNGHLNTSALGYILNEEQIRCDEYDPAKNNKFTYTLLEQRYLLDIMKQFELCYDEGKGLFIIPSNLPTQIDNEPEITEGEPLRFIMKYDYLPSTIIPRLMIAMQHQILDRMQWRYGMVLKSQDHEGALAKVVAETKDSTITIAIQGEPRCKREYLSIIWYEIKKINANFTNLDVKEFIPLPGHPDELVEYKELLGLEKMGRDEYVSGKLEKVFSVSKMLDSVISKEERNKER | ~1 | 2 |  |  |  | 
2 | Roco protein from Chlorobium tepidum (CtRoco), full length (natural protein, UniProt Q8KC98 1-1102, looked up, Roco protein from Chlorobium tepidum (CtRoco), a.a; 1-1102: LRR domain (1-411), Roc-COR module (412-946), C-terminal region (947-1102); also called CtRoco wt; C. tepidum Roco protein; source: E. coli BL21 (DE3), purified (Ni-NTA IMAC, EDTA treatment, Superdex S200 SEC)) MSDLDVIRQIEQELGMQLEPVDKLKWYSKGYKLDKDQRVTAIGLYDCGSDTLDRIIQPLESLKSLSELSLSSNQITDISPLASLNSLSMLWLDRNQITDIAPLASLNSLSMLWLFGNKISDIAPLESLKSLTELQLSSNQITDIAPLASLKSLTELSLSGNNISDIAPLESLKSLTELSLSSNQITDIAPLASLKSLTELSLSSNQISDIAPLESLKSLTELQLSRNQISDIAPLESLKSLTELQLSSNQITDIAPLASLKSLTELQLSRNQISDIAPLESLNSLSKLWLNGNQITDIAPLASLNSLTELELSSNQITDIAPLASLKSLSTLWLSSNQISDIAPLASLESLSELSLSSNQISDISPLASLNSLTGFDVRRNPIKRLPETITGFDMEILWNDFSSSGFITFFDNPLESPPPEIVKQGKEAVRQYFQSIEEARSKGEALVHLQEIKVHLIGDGMAGKTSLLKQLIGETFDPKESQTHGLNVVTKQAPNIKGLENDDELKECLFHFWDFGGQEIMHASHQFFMTRSSVYMLLLDSRTDSNKHYWLRHIEKYGGKSPVIVVMNKIDENPSYNIEQKKINERFPAIENRFHRISCKNGDGVESIAKSLKSAVLHPDSIYGTPLAPSWIKVKEKLVEATTAQRYLNRTEVEKICNDSGITDPGERKTLLGYLNNLGIVLYFEALDLSEIYVLDPHWVTIGVYRIINSSKTKNGHLNTSALGYILNEEQIRCDEYDPAKNNKFTYTLLEQRYLLDIMKQFELCYDEGKGLFIIPSNLPTQIDNEPEITEGEPLRFIMKYDYLPSTIIPRLMIAMQHQILDRMQWRYGMVLKSQDHEGALAKVVAETKDSTITIAIQGEPRCKREYLSIIWYEIKKINANFTNLDVKEFIPLPGHPDELVEYKELLGLEKMGRDEYVSGKLEKVFSVSKMLDSVISKEERNKERLMGDINIKLENIGNPTIPIHQQVEVNVSQETVQHVENLQGFFENLKADILREAELEIDDPKERKRLANELELAENAITKMDAAVKSGKNKLKPDVKDRLGEFIDNLANENSRLRKGIALVMNGAEKVQKLARYYNNVAPFFDLPSVPPVLLGKEKT |  | 2 | 1 | ~2 | ~30 | 
3 | CtRoco L487A mutant, full length (natural protein, Chlorobium tepidum, UniProt Q8KC98 1-1102, looked up, Roco protein from Chlorobium tepidum (CtRoco), a.a; 1-1102, with L487A (analogue of LRRK2 I1371V); also called L487A CtRoco) MSDLDVIRQIEQELGMQLEPVDKLKWYSKGYKLDKDQRVTAIGLYDCGSDTLDRIIQPLESLKSLSELSLSSNQITDISPLASLNSLSMLWLDRNQITDIAPLASLNSLSMLWLFGNKISDIAPLESLKSLTELQLSSNQITDIAPLASLKSLTELSLSGNNISDIAPLESLKSLTELSLSSNQITDIAPLASLKSLTELSLSSNQISDIAPLESLKSLTELQLSRNQISDIAPLESLKSLTELQLSSNQITDIAPLASLKSLTELQLSRNQISDIAPLESLNSLSKLWLNGNQITDIAPLASLNSLTELELSSNQITDIAPLASLKSLSTLWLSSNQISDIAPLASLESLSELSLSSNQISDISPLASLNSLTGFDVRRNPIKRLPETITGFDMEILWNDFSSSGFITFFDNPLESPPPEIVKQGKEAVRQYFQSIEEARSKGEALVHLQEIKVHLIGDGMAGKTSLLKQLIGETFDPKESQTHGANVVTKQAPNIKGLENDDELKECLFHFWDFGGQEIMHASHQFFMTRSSVYMLLLDSRTDSNKHYWLRHIEKYGGKSPVIVVMNKIDENPSYNIEQKKINERFPAIENRFHRISCKNGDGVESIAKSLKSAVLHPDSIYGTPLAPSWIKVKEKLVEATTAQRYLNRTEVEKICNDSGITDPGERKTLLGYLNNLGIVLYFEALDLSEIYVLDPHWVTIGVYRIINSSKTKNGHLNTSALGYILNEEQIRCDEYDPAKNNKFTYTLLEQRYLLDIMKQFELCYDEGKGLFIIPSNLPTQIDNEPEITEGEPLRFIMKYDYLPSTIIPRLMIAMQHQILDRMQWRYGMVLKSQDHEGALAKVVAETKDSTITIAIQGEPRCKREYLSIIWYEIKKINANFTNLDVKEFIPLPGHPDELVEYKELLGLEKMGRDEYVSGKLEKVFSVSKMLDSVISKEERNKERLMGDINIKLENIGNPTIPIHQQVEVNVSQETVQHVENLQGFFENLKADILREAELEIDDPKERKRLANELELAENAITKMDAAVKSGKNKLKPDVKDRLGEFIDNLANENSRLRKGIALVMNGAEKVQKLARYYNNVAPFFDLPSVPPVLLGKEKT |  |  |  |  |  | 2
